In assay [1] the target is taxol-stabilized porcine brain GDP-microtubules (porcine) (UniProt P02550).
The target is the same in assay [2]. The source holds these as a separate data set.

Sequence of UniProt P02550 (P02550 46-451): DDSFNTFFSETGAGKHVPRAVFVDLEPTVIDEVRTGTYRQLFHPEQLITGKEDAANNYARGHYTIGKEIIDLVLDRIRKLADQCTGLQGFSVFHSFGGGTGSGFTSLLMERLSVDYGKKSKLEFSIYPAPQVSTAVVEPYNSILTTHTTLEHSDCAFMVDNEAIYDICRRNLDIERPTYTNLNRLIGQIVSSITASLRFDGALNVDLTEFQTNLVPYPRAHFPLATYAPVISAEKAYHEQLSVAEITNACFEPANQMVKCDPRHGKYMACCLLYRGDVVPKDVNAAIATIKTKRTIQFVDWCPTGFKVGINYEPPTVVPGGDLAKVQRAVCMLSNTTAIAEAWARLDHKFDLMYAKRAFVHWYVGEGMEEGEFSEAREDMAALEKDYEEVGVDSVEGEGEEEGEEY

In the case of GcKIF5A (enzyme), the K (1/2,MT) of the microtubule-stimulated ATPase activity in assay [1] worked out at 4.2 µM. This substance also yielded a microtubule detachment rate under load in assay [2] of 3.9 s⁻¹.

In assay [1], “MmKIF5A (from UniProt P33175 1-1027) (enzyme)” gave a K (1/2,MT) of the microtubule-stimulated ATPase activity of 2.2 µM. Further, the microtubule detachment rate under load in assay [2] amounted to 1.3 s⁻¹.

These data come from paper doi:10.1101/2025.05.04.652084.
